Measured values from patent US20170312350A1 (IMMATICS BIOTECHNOLOGIES, published 2017).

Target: MHC/IGF2BP3-001 complex on IGF2BP3-001-loaded target cells (human)
Experiment: cell-based or functional assay

B1: TCR R10P1A7 (TCR, V domains shown)
V domain 1: GEDVEQSLFLSVREGDSSVINCTYTDSSSTYLYWYKQEPGAGLQLLTYIFSNMDMKQDQRLTVLLNKKDKHLSLRIADTQTGDSAIYFCAESKETRLMFGDGTQLVVKP
V domain 2: GAVVSQHPSWVICKSGTSVKIECRSLDFQATTMFWYRQFPKQSLMLMATSNEGSKATYEQGVEKDKFLINHASLTLSTLTVTSAHPEDSSFYICSARAGGHEQFFGPGTRLTVLE
In the case of B1, the “EC50 (target peptide titration, IFNγ release)” value is reported as ~1 nM.
